Measurements as given in article PMC7480105, “Wbox2: A clathrin terminal domain–derived peptide inhibitor of clathrin-mediated endocytosis” (The Journal of Cell Biology, 2020).
No end group written: not given here.

Columns and labels:
Type in all cases: cell-based
[1] = system: TfnR uptake via CME in ARPE/HPV cells; test: TfnR uptake (in-cell ELISA) after peptide preincubation; conditions: 60-min preincubation with peptide at 37°C, concentration curves, n = 4 replicates (Fig. 7 F), read-out: IC50 for inhibition of TfnR uptake
Experimental: Peptides encoding the TAT sequence (YGRKKRRQRRR) followed by 10 amino acid sequences covering the four reported binding sites on the clathrin terminal domain (Fig. 7 A) were synthesized by GenScript (Piscataway, NJ) with >95% purity. Peptides were dissolved in dH2O and further diluted in PBS4+ (1× PBS buffer plus 0.2% BSA, 1 mM CaCl2, 1 mM MgCl2, and 5 mM D-glucose) or cell culture medium (for imaging) when applied to cells. Peptide solutions were stored at −20°C.
(§1) Internalization of TfnR, CD44, CD59, and Biotin-Tfn was quantified by in-cell ELISA following established protocols ([Conner and Schmid, 2003]; [Srinivasan et al., 2018]). Cells were seeded in 96-well plates (Costar) at 60–70% confluence and grown overnight. Before the assay, cells were starved for 30 min in PBS4+ at 37°C or treated with peptides in PBS4+ at 37°C for the indicated times. After starvation, cells were moved to 4°C, and culture medium was replaced with cold PBS4+ containing 5 µg/ml HTR-D65 (anti-TfnR mAb; [Schmid and Smythe, 1991]), anti-human CD44 or anti-human CD59 (BD PharMingen) or 5 µg/ml Biotin-Tfn (Sigma-Aldrich). For single-round assays, the above reagents were kept with cells for 20 min at 4°C and then washed out before uptake assay. For multiround assays, the above reagents were kept with cells throughout the uptake process. In parallel, some cells were kept at 4°C for the measurement of surface-bound ligands and blank controls, and some were incubated in a 37°C water bath for the indicated times. Acid wash (0.2 M acetic acid and 0.2 M NaCl, pH 2.3) was used to remove surface-bound antibodies, followed by washing with cold PBS. All were fixed with 4% PFA (Electron Microscopy Sciences) in PBS for 30 min at 37°C. 0.1% Triton X-100 was added for 6.5 min to permeabilize cells, followed by addition of blocking buffer. HTR-D65–, CD44-, and CD59-treated cells were blocked with Q-PBS (PBS, 2% BSA, 0.1% lysine, and 0.01% saponin, pH 7.4), and Biotin-Tfn–treated cells were blocked with 2% casein. Surface-bound and internalized HTR-D65, CD44, and CD59 were probed with goat anti-mouse antibody conjugated with HRP (Sigma-Aldrich), and Biotin-Tfn was probed with Streptavidin-POD conjugate (Sigma-Aldrich). Color was developed using o-phenylenediamine dihydrochloride (OPD) solution (Sigma-Aldrich), and absorbance was read at 490 nm (Biotek Synergy H1 Hybrid Reader). Cell number variation among wells was accounted for by bicinchoninic acid assay reading at 562 nm.

[2] = system: association of AP2 with the membrane pellet, ARPE cells; test: Subcellular fractionation, AP2 in membrane pellet; conditions: cells with TDD overexpression, n = 3; control cells 59 ± 14% (Fig. 5 E)
Experimental: Confluent ARPE or ARPE/HPV cells in a 10-cm dish were detached with 3 ml of 50 mM EDTA at 37°C for 10 min. Extra EDTA after detachment was neutralized with 0.2 ml of 1 M MgCl2. Cells were then spun down at 500 g for 3 min and washed with cold PBS. After another spin to remove PBS, cells were resuspended in 0.5 ml ice-cold lysis buffer (25 mM Hepes, 250 mM sucrose, 1 mM MgCl2, and 2 mM EGTA, pH 7.4). Cells were then lysed by five rounds of freeze–thaw cycle (rapid freezing in liquid nitrogen and slow thawing in room temperature water bath, followed by brief vortex and 10-s sonication). Intact cells and nuclei were removed by centrifugation for 2 min at 500 g. 0.1 ml of lysed sample was kept as total control, and the rest (0.4 ml) underwent ultracentrifugation at 4°C for 30 min at 110,000 g to separate membranes (pellet) from cytosol (supernatant). Supernatant was transferred to another low binding Eppendorf, and the pellet was resuspended with the same volume of lysis buffer (0.4 ml). Total, pellet, and supernatant were heat denatured in 1× sample buffer and probed by Western blotting.

ARPE/HPV eGFP-CLCa cells = test: TIRFM CCP dynamics with TDD/TD overexpression; conditions: TIRFM and cmeAnalysis (Fig. 3 C, Fig. 4 C)
Experimental: Cells were seeded on a gelatin-coated 22 × 22–mm cover glass (Corning; 2850-22) overnight and moved to fresh cell culture medium 30 min before being mounted on a 25 × 75–mm slide (Thermo Fisher Scientific; 3050). Imaging was conducted with a 60×, 1.49-NA Apo TIRF objective (Nikon) mounted on a Ti-Eclipse inverted microscope. Perfect focus was used during time-lapse imaging. TIRF penetration depth was ∼80 nm. Videos were acquired for 7.5 min at the rate of 1 frame/s for all live-cell imaging. For dual-color imaging, two sequential images of primary and secondary channel were taken within 1 s, and the video length was the same as single-channel imaging. Published cmeAnalysis software was used for CCP detection, tracking, and quantification ([Aguet et al., 2013]; [Jaqaman et al., 2008]; [Loerke et al., 2011]).

[3] = system: CD59 uptake in ARPE/HPV cells; test: CD59 uptake (clathrin-independent endocytosis marker); conditions: TDD expression (0 ng/ml Tet), ARPE/HPV cells (Fig. 2 F)
Experimental: as §1, with “Acid wash (0.2 M acetic acid and 0.2 M NaCl, pH 2.3) was used to remove surface-bound antibodies, followed by washing with cold PBS. All were fixed with 4% PFA (Electron Microscopy Sciences) in PBS for 30 min at 37°C. 0.1% Triton X-100 was added for 6.5 min to permeabilize cells, followed by addition of blocking buffer. HTR-D65–, CD44-, and CD59-treated cells were blocked with Q-PBS (PBS, 2% BSA, 0.1% lysine, and 0.01% saponin, pH 7.4), and Biotin-Tfn–treated cells were blocked with 2% casein. Surface-bound and internalized HTR-D65, CD44, and CD59 were probed with goat anti-mouse antibody conjugated with HRP (Sigma-Aldrich), and Biotin-Tfn was probed with Streptavidin-POD conjugate (Sigma-Aldrich).” left out

[4] = system: CD44 uptake in ARPE/HPV cells; test: CD44 uptake (clathrin-independent endocytosis marker); conditions: TDD expression (0 ng/ml Tet), ARPE/HPV cells (Fig. 2 F)
Experimental: as §1, with “Acid wash (0.2 M acetic acid and 0.2 M NaCl, pH 2.3) was used to remove surface-bound antibodies, followed by washing with cold PBS. All were fixed with 4% PFA (Electron Microscopy Sciences) in PBS for 30 min at 37°C. 0.1% Triton X-100 was added for 6.5 min to permeabilize cells, followed by addition of blocking buffer. HTR-D65–, CD44-, and CD59-treated cells were blocked with Q-PBS (PBS, 2% BSA, 0.1% lysine, and 0.01% saponin, pH 7.4), and Biotin-Tfn–treated cells were blocked with 2% casein. Surface-bound and internalized HTR-D65, CD44, and CD59 were probed with goat anti-mouse antibody conjugated with HRP (Sigma-Aldrich), and Biotin-Tfn was probed with Streptavidin-POD conjugate (Sigma-Aldrich).” left out

[5] = system: fluid phase uptake of HRP in ARPE/HPV cells; test: Fluid-phase uptake of HRP; conditions: TDD expression (0 ng/ml Tet), ARPE/HPV cells (Fig. 2 E)
Experimental: Fluid-phase uptake assays were conducted using HRP (Sigma-Aldrich) as the readout. Cells were seeded in 96-well plates (Costar) at 60–70% confluence and grown overnight. Before assay, cell culture medium was changed to PBS4+ and cooled down to 4°C. Ice-cold HRP solution (1 mg/ml) was added to cells and moved to a 37°C water bath for 30 min. In parallel, some cells were kept at 4°C as blank control. All the cells were acid washed (0.2 M acetic acid and 0.2 M NaCl, pH 2.3) and lysed with ELISA blocking buffer (1% Triton X-100, 0.1% SDS, 0.2% BSA, 50 mM NaCl, and 1 mM Tris, pH 7.4) for 1 h at 4°C. Color was developed using OPD solution (Sigma-Aldrich), and absorbance was read at 490 nm (Biotek Synergy H1 Hybrid Reader).

[6] = system: TfnR uptake in ARPE cells; test: TfnR uptake with TDD overexpression (Tet-off adenovirus); conditions: maximum TDD expression, adenovirus-infected ARPE cells, n = 4 replicates (Fig. 2 C)
Experimental: TDD, TD, and tTA adenoviruses were applied to cells directly in culture medium. Pilot experiments were conducted to optimize the volumes of each virus preparation need for uniform infection (Fig. S1, A and B). Experiments were conducted after 12–18 h, allowing for adequate viral infection and protein expression. Protein expression could be regulated by adjusting Tet concentration. All experiments were performed in the absence of Tet, allowing for maximum protein expression, except for Fig. 1, A–C.
Internalization of TfnR, CD44, CD59, and Biotin-Tfn was quantified by in-cell ELISA following established protocols ([Conner and Schmid, 2003]; [Srinivasan et al., 2018]). Cells were seeded in 96-well plates (Costar) at 60–70% confluence and grown overnight. Before the assay, cells were starved for 30 min in PBS4+ at 37°C or treated with peptides in PBS4+ at 37°C for the indicated times. After starvation, cells were moved to 4°C, and culture medium was replaced with cold PBS4+ containing 5 µg/ml HTR-D65 (anti-TfnR mAb; [Schmid and Smythe, 1991]), anti-human CD44 or anti-human CD59 (BD PharMingen) or 5 µg/ml Biotin-Tfn (Sigma-Aldrich). […] Color was developed using o-phenylenediamine dihydrochloride (OPD) solution (Sigma-Aldrich), and absorbance was read at 490 nm (Biotek Synergy H1 Hybrid Reader). Cell number variation among wells was accounted for by bicinchoninic acid assay reading at 562 nm.

Tfn recycling = test: Biotin-Tfn recycling assay; conditions: TDD expression (0 ng/ml Tet), ARPE/HPV cells, 10- or 30-min pulse (Fig. 2 D)
Experimental: Biotin-Tfn recycling was conducted according to previous protocols ([Chen et al., 2017]). Cells were cultured in biotin-free medium for 48 h, seeded in 96-well plates (Costar) at 60–70% confluence, and grown overnight. Before assay, cells were starved for 45 min in PBS4+ at 37°C or treated with peptides in PBS4+ at 37°C for the indicated times. After starvation, cells were supplied with 100 µl of 5 µg/ml Biotin-Tfn in PBS4+ for 10 or 30 min to load Biotin-Tfn into cells. When loading was complete, cells were cooled down to 4°C and washed with PBS4+ to remove extra Biotin-Tfn. Some cells were kept at 4°C as loading controls. The remaining cells were first treated with avidin and biocytin to mask the surface-bound Biotin-Tfn, and then incubated at 37°C for the indicated times. All the cells were then acid washed and fixed with 4% PFA as above. Blocking steps were the same as for the Biotin-Tfn uptake assay. Data were expressed as percentage of total intracellular ligand remaining relative to the initial load.

YGRKKRRQRRRKAGKTLQIFN [Cbox1]
IC50 [1]: ~60 µM

YGRKKRRQRRRKTLQIFKSKI [Cbox2]
IC50 [1]: > 100 µM

YGRKKRRQRRRLAGCQIINYR [Wbox1]
IC50 [1]: ~3 µM

B1: TDD: clathrin heavy chain fragment (residues 1–1,074): N-terminal domain plus distal leg, overexpressed by Tet-off adenovirus (protein)
chain: MAQILPIRFQEHLQLQNLGINPANIGFSTLTMESDKFICIREKVGEQAQVVIIDMNDPSNPIRRPISADSAIMNPASKVIALKAGKTLQIFNIEMKSKMKAHTMTDDVTFWKWISLNTVALVTDNAVYHWSMEGESQPVKMFDRHSSLAGCQIINYRTDAKQKWLLLTGISAQQNRVVGAMQLYSVDRKVSQPIEGHAASFAQFKMEGNAEESTLFCFAVRGQAGGKLHIIEVGTPPTGNQPFPKKAVDVFFPPEAQNDFPVAMQISEKHDVVFLITKYGYIHLYDLETGTCIYMNRISGETIFVTAPHEATAGIIGVNRKGQVLSVCVEEENIIPYITNVLQNPDLALRMAVRNNLAGAEELFARKFNALFAQGNYSEAAKVAANAPKGILRTPDTIRRFQSVPAQPGQTSPLLQYFGILLDQGQLNKYESLELCRPVLQQGRKQLLEKWLKEDKLECSEELGDLVKSVDPTLALSVYLRANVPNKVIQCFAETGQVQKIVLYAKKVGYTPDWIFLLRNVMRISPDQGQQFAQMLVQDEEPLADITQIVDVFMEYNLIQQCTAFLLDALKNNRPSEGPLQTRLLEMNLMHAPQVADAILGNQMFTHYDRAHIAQLCEKAGLLQRALEHFTDLYDIKRAVVHTHLLNPEWLVNYFGSLSVEDSLECLRAMLSANIRQNLQICVQVASKYHEQLSTQSLIELFESFKSFEGLFYFLGSIVNFSQDPDVHFKYIQAACKTGQIKEVERICRESNCYDPERVKNFLKEAKLTDQLPLIIVCDRFDFVHDLVLYLYRNNLQKYIEIYVQKVNPSRLPVVIGGLLDVDCSEDVIKNLILVVRGQFSTDELVAEVEKRNRLKLLLPWLEARIHEGCEEPATHNALAKIYIDSNNNPERFLRENPYYDSRVVGKYCEKRDPHLACVAYERGQCDLELINVCNENSLFKSLSRYLVRRKDPELWGSVLLESNPYRRPLIDQVVQTALSETQDPEEVSVTVKAFMTADLPNELIELLEKIVLDNSVFSEHRNLQNLLILTAIKADRTRVMEYINRLDNYDAPDIANIAISNELFEEAFAIFRK
modifications: left off: HA, N-terminal, kept
notes: clathrin heavy chain fragment (residues 1–1,074): N-terminal domain plus distal leg, overexpressed by Tet-off adenovirus
association of AP2 with the membrane pellet [2]: 76 ± 14% | CCP initiation (ARPE/HPV eGFP-CLCa cells): dramatically decreased | CD59 uptake (CIE) [3]: not significantly inhibited | CD44 uptake (CIE) [4]: not significantly inhibited | fluid phase uptake (HRP) [5]: not significantly inhibited | inhibition of endocytic efficiency of TfnR [6]: 80% | recycling of Tfn (Tfn recycling): not significantly perturbed

B2: TD: clathrin heavy chain N-terminal domain, generated by mutating T495 to a stop codon in TDD (protein, UniProt Q00610 1-494, looked up, fragment)
chain: MAQILPIRFQEHLQLQNLGINPANIGFSTLTMESDKFICIREKVGEQAQVVIIDMNDPSNPIRRPISADSAIMNPASKVIALKAGKTLQIFNIEMKSKMKAHTMTDDVTFWKWISLNTVALVTDNAVYHWSMEGESQPVKMFDRHSSLAGCQIINYRTDAKQKWLLLTGISAQQNRVVGAMQLYSVDRKVSQPIEGHAASFAQFKMEGNAEESTLFCFAVRGQAGGKLHIIEVGTPPTGNQPFPKKAVDVFFPPEAQNDFPVAMQISEKHDVVFLITKYGYIHLYDLETGTCIYMNRISGETIFVTAPHEATAGIIGVNRKGQVLSVCVEEENIIPYITNVLQNPDLALRMAVRNNLAGAEELFARKFNALFAQGNYSEAAKVAANAPKGILRTPDTIRRFQSVPAQPGQTSPLLQYFGILLDQGQLNKYESLELCRPVLQQGRKQLLEKWLKEDKLECSEELGDLVKSVDPTLALSVYLRANVPNKVIQCFAE
modifications: HA tag
notes: clathrin heavy chain N-terminal domain, generated by mutating T495 to a stop codon in TDD
CCP initiation (ARPE/HPV eGFP-CLCa cells): sufficient to suppress
